Laboratory results from PMC4844822.

Biological target: T1, oxidized wild type Prdx6 (H2O2-treated, over-oxidized protein) (human), P30041
T1 chain: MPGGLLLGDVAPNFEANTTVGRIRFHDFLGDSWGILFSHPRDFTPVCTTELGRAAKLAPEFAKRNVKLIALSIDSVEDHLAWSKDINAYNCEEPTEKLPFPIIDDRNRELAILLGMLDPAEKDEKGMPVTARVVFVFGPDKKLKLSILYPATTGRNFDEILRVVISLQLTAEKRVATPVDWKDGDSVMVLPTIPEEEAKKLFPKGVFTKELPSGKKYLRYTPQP
Test: AUC
Conditions: remark: other sources report otherwise

B1: oxidized wild type Prdx6 (H2O2-treated, over-oxidized protein), P30041 1-224 (natural protein)
chain: MPGGLLLGDVAPNFEANTTVGRIRFHDFLGDSWGILFSHPRDFTPVCTTELGRAAKLAPEFAKRNVKLIALSIDSVEDHLAWSKDINAYNCEEPTEKLPFPIIDDRNRELAILLGMLDPAEKDEKGMPVTARVVFVFGPDKKLKLSILYPATTGRNFDEILRVVISLQLTAEKRVATPVDWKDGDSVMVLPTIPEEEAKKLFPKGVFTKELPSGKKYLRYTPQP
modifications: here or on the partner: C47 over-oxidized (-SOOH/-SOOOH) by H2O2 treatment; C47 over-oxidized (-SOOH/-SOOOH) by H2O2 treatment
stoichiometry N: 2
